Assay results taken from paper PMC12594171, “DKK3-LRP1 complex and a chemical inhibitor regulate Aβ clearance in models of Alzheimer’s disease” (Science Advances, 2025).

Target: mLRPIV-HA, stably expressed in SH-SY5Y
Assay: co-IP + ELISA; SH-SY5Y cells stably expressing mLRPIV-HA incubated with Aβ42 and 1 to 200 nM DKK1 or DKK3; mLRPIV-HA precipitated with anti-HA affinity gel; Aβ42 in the eluate by ELISA

DKK3-Flag, sequence (Q9UBP4 22-350): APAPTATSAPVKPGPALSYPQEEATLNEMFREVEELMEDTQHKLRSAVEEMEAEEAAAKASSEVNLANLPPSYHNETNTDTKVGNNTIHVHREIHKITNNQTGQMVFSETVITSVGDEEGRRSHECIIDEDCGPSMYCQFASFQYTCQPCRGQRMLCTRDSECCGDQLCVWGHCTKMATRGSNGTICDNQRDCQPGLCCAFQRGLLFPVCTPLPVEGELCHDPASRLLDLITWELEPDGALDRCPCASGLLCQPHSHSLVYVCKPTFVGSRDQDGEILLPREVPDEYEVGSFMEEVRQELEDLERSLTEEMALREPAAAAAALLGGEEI

“DKK3-Flag (from UniProt Q9UBP4 22-350) (ligand)” gave a percent reduction of Aβ42 binding to mLRPIV at 20 nM DKK3 of 60%.
